Test results taken from paper PMC9058472.

Target: polymerized microtubules (UniProt P68369)

Q: Which microtubule binding against WT α-TAT1 does the source give for “GFP-α-TAT1^DC1 (α-TAT1 with Cluster 1 deleted) (from UniProt Q8K341 1-314) (domain or fragment)” here?
A: 65%
